In doi:10.1101/292912 (bioRxiv, 2018):

Molecular target: the molecule itself
Assay: dynamic light scattering

B1: Δ68-269 SaMGT (transmembrane domain-less monoglycosyltransferase from S. aureus) (domain or fragment)
chain: DNVDELRKIENKSSFVSADNMPEYVKGAFISMEDERFYNHHGFDLKGTTRALFSTISDRDVQGGSTITQQVVKNYFYDNDRSFTRKVKELFVAHRVEKQYNKNEILSFYLNNIYFGDNQYTLEGAANHYFGTTVNKNSTTMSHITVLQSAILASKVNAPSVYNINNMSENFTQRVSTNLEKMKQQNYINETQYQQAMSQLNR
  binding result: binds
